Measurements: publication PMC6123398

Experiments:
[1] = target: human FcγRIIIa-Val158, soluble ectodomain (human); assay: SPR; FcγRIIIa ectodomains immobilised on Series S CM5 chips by amine coupling (Phe158 560 RU, Val158 260 RU); Biacore T200; antibody injected (Rituxan 21,870-30 nM, recombinant mAb 810-3.333 nM, threefold dilutions); blank surface and buffer subtracted; 1:1 Langmuir binding model
[2] = target: human FcγRIIIa-Phe158, soluble ectodomain (human) (UniProt P08637); assay: as above
UniProt P08637, sequence (P08637 17-208): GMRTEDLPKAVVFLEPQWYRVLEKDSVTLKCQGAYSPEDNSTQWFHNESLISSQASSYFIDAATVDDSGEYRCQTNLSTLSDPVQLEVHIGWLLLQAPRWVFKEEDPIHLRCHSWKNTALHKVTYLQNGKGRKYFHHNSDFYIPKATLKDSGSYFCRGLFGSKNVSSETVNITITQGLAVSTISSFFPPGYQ

Q: For Rituxan (antibody), which Kd [1] is on record?
A: Its Kd is 0.94 µM.

Q: What about the koff [1] of the same substance?
A: The koff was 0.043 s⁻¹.

Q: What about the kon [1] of the same substance?
A: Its kon is 46000 M⁻¹ s⁻¹.

Q: And the Kd [2]?
A: Its Kd is 6.8 µM.

Q: What about the koff [2] of the same substance?
A: Its koff is 0.17 s⁻¹.

Q: And the kon [2]?
A: Its kon is 25000 M⁻¹ s⁻¹.
